Results: a protein production outcome set (Wang et al. 2014)

Test: label from the status in PepcDB records

| Sequence | protein production |
| --- | --- |
| MSLSQNAPKSKGIKREELKKQYEDVEDEEEIGSDDDLTRGKRRKTEKEKQKLEESELVEMKKLENLIFGSLYSPVTFGKEEEEDGSALFHVDRSAVRQIPDYEDDGDDDEELSDEENGQVVAIRKGEAAWEDEEEKQINVDIASVNRLRKLRKEENEGLISGSEYIARLRAHHAKLNPGTDWARPDSQIVDGESSDDDDTQDGGVDDILRTNEDLVVKSRGNKLCAGRLEYSKLVDANAADPSNGPINSVHFHQNAQLLLTAGLDRRLRFFQIDGKRNTKIQSIFLEDCPIRKAAFLPNGSQVIVSGRRKFFYSFDLEKAKFDKIGPLVGREEKSLEYFEVSQDSNTIAFVGNEGYILLVSTKTKELIGTLKMNGSVRSLAFSEDGKHLLSSGGDGQVYVWDLRTMKCLYKGVDEGSTCGTSLCSSLNGALFASGTDRGIVNIYKKSEFVGGKRKPIKTVDNLTSKIDFMKFNHDAQILAIVSTMNKNSVKLVHVPSLTVFSNWPPPNSTMHYPRCLDFSPGSGFMAMGNAAGKVLLYKLHHYQNA | failed |
| MIKYILGIVIFIAIVLVAITIGANNDQIITFNYIVAESQFQLSSLVAILFGLGLILGWLITAFFYIKLKLKNMALARQVKRQTLQINELTTTRDKVV | failed |
| NFDTNMFKLENYVKEKYSLESLEIIPNEFDDTPTILSERISQVAAGVLRNLIDDNMKIGFSWGKSLSNLVDLIHSKSVRNVHFYPLAGGPSHIHAKYHVNTLIYEMSRKFHGECTFMNATIVQENKLLADGILQSRYFENLKNSWKDLDIAVVGIGDFSNKGKHQWLDMLTEDDFKELTKVKTVGEICCRFFDSKGKEVYENLQERTIAISLEDLKNIPQSLAVAYGDTKVSSILSVLRANLVNHLITDKNTILKVLEEDGDL | not failed |
| MPVAATNSETAMQQVLDNLGSLPSATGAAELDLIFLRGIMESPIVRSLAKAHERLEETKLEAVRDNNLELVQEILRDLAQLAEQSSTAAELAHILQEPHFQSLLETHDSVASKTYETPPPSPGLDPTFSNQPVPPDAVRMVGIRKTAGEHLGVTFRVEGGELVIARILHGGMVAQQGLLHVGDIIKEVNGQPVGSDPRALQELLRNASGSVILKILPSYQEPHLPRQVFVKCHFDYDPARDSLIPCKEAGLRFNAGDLLQIVNQDDANWWQACHVEGGSAGLIPSQLLEEKRKAFVKRDLELTPNSGTLCGSLSGKKKKRMMYLTTKNAEFDRHELLIYEEVARMPPFRRKTLVLIGAQGVGRRSLKNKLIMWDPDRYGTTVPYTSRRPKDSEREGQGYSFVSRGEMEADVRAGRYLEHGEYEGNLYGTRIDSIRGVVAAGKVCVLDVNPQAVKVLRTAEFVPYVVFIEAPDFETLRAMNRAALESGISTKQLTEADLRRTVEESSRIQRGYGHYFDLCLVNSNLERTFRELQTAMEKLRTEPQWVPVSWVY | not failed |
| MLSHMDGGTAGARVREVGWLAATLTALLLALLLEHYVIHEQMILPWIAVSPEVPPWMLGAQVVPEIIVCFLFGWRLRGLGWIVIYGAAAAALRQSFYALLTRIGASGHPETLFGPPSEFARTAPLVAVMYFMAFGLASMGAREPGPLPGARSRP | failed |
| MVTGMFSLGRTYLFRVPEGEELLTYIKNFCKKEGIETAIINGIGTLKNPKIGYFLEEKKEYKVIPLKGSYELISLIGNVSLKDGEPFVHAHVSLGNEEGIVFGGHLVEGEVFVAEIFLQELKGEKIERKPTKYGLALWEELKLLEHHHHHH | not failed |
| MLLALLSLGTWPAVLTLLERRGRLPQHTYLDYSITNLLAAIIIAFTFGQIGSTKPDSPNFITQLAQDNWPSVMFAMAGGIVLSLGNLSTQYAWALVGLSVTEVITSSITVVIGSTLNYFLDDKINKAEILFPGVACFLIAVCLGSAVHRSNADDNKAKLRDFETAKQEASGPSTEIGTNSSKDLETNVTTKPKEGTARFLIELENTRAIKVFGKRKIIGLAITFFAGLCFSLFSPAFNLATNDQWNRLKQGVPKLVVYTAFFYFSVSCFIIALILNVVFLYYPVLGLPKSSFKAYLNDWNGRYWAFLAGFLCGFGNGLQFMGGQAAGYAAADSVQALPLVSTFWGVVLFGEYRRSSRKTYLLLFCMLFMFISAVAVLMASSGHRK | failed |
| ARPCIPKSFGYSSVVCVCNATYCDSFDPPTFPALGTFSRYESTRSGRRMELSMGPIQANHTGTGLLLTLQPEQKFQKVKGFGGAMTDAAALNILALSPPAQNLLLKSYFSEEGIGYNIIRVPMASCDFSIRTYTYADTPDDFQLHNFSLPEEDTKLKIPLIHRALQLAQRPVSLLASPWTSPTWLKTNGAVNGKGSLKGQPGDIYHQTWARYFVKFLDAYAEHKLQFWAVTAENEPSAGLLSGYPFQCLGFTPEHQRDFIARDLGPTLANSTHHNVRLLMLDDQRLLLPHWAKVVLTDPEAAKYVHGIAVHWYLDFLAPAKATLGETHRLFPNTMLFASEACVGSKFWEQSVRLGSWDRGMQYSHSIITNLLYHVVGWTDWNLALNPEGGPNWVRNFVDSPIIVDITKDTFYKQPMFYHLGHFSKFIPEGSQRVGLVASQKNDLDAVALMHPDGSAVVVVLNRSSKDVPLTIKDPAVGFLETISPGYSIHTYLWHRQ | not failed |
| MQHGPVVRRRKLGAELRALRTSAGITSGEAARLVGWHQSKVSRIETGTSGAKPADVRLLLDAYGVTDEQLRGLLVMLAHSEDAGGRNHWWHAYRGVLPPTYRDFISLESQAAAMRTLETTVVPGLLQTPEYARAVTRAAVDGMPAERLDTLVEVRLARQDVLRGEPPLELSAVLDEAVLRRVVGGPGVMSRQLTRLVEAAQLPHVRIQVLPFAAGAHIGVTGPFVIFSFSSTSDLDVVVLDHLTSSLHLERKEDLEAYTEAFNALLIHALSPEDSLDFIAATAAGA | failed |
| MAKSKSSQGASGARRKPAPSLYQHISSFKPQFSTRVDDVLHFSKTLTWRSEIIPDKSKGTLTTSLLYSQGSDIYEIDTTLPLKTFYDDDDDDDNDDDDEEGNGKTKSAATPNPEYGDAFQDVEGKPLRPKWIYQGETVAKMQYLESSDDSTAIAMSKNGSLAWFRDEIKVPVHIVQEMMGPATRYSSIHSLTRPGSLAVSDFDVSTNMDTVVKSQSNGYEEDSILKIIDNSDRPGDILRTVHVPGTNVAHSVRFFNNHLFASCSDDNILRFWDTRTADKPLWTLSEPKNGRLTSFDSSQVTENLFVTGFSTGVIKLWDARAVQLATTDLTHRQNGEEPIQNEIAKLFHSGGDSVVDILFSQTSATEFVTVGGTGNVYHWDMEYSFSRNDDDNEDEVRVAAPEELQGQCLKFFHTGGTRRSSNQFGKRNTVALHPVINDFVGTVDSDSLVTAYKPFLASDFIGRGYDD | failed |
| AEEKVKDEAMQIMGMFQILPRLVVFDLDYTLWPFYCECRSKREMPSMYPQAKGILSALKEKGIEMAIASRSPTSDIANTFLDKLNIKPMFVAKVSKMGVTSILVGDGVTLGAFRQGLTEFTQNHNSIEKNKQVWRDKYSG | failed |
| MKLLENSRFEALSSQLCVETGDAQIIGRIESYSCKMAGDDKHMFKQFCQEGEPHVLEALSPPQSSSAPSPNLLGKSGEDAENPLSDKCCRKTLFYLITTLNESFRPDYDFSAARAHEFSREPSANWVANSVNSSLYSAVGEQFNTLGPELWTAIDQEINLQGCDIYSYNPDLDSDPFGEEGSLWSFNYFFYNKKLKRILFFTCRSVSVLSSYGRSGLDNELDMELDDEEELDGFMEDRIPRALCV | failed |
| MSNFFKQTLASLLGTLLGLFLFAGAGTTGLLLLLFAAASSSNTGPVVKDKSVVVFDLSMNITDREPSAGEELQNRFSGVTQERMTLRNVIDSLEKAQRDKRIVAIYLDGSRGGNNLGFASLKEIRKALEEFRKSGKKVIAYGVAWDEKEYYLSSVADTIALNPLGGLEINGLSSQPMFLAGALQKYGIGVQVVRAGKFKGAVEPFLLDKLSPENREQTQKLLDDVWGEWRTTVGNSRKINPQKLQAIADNQSLLEATEAKTNGLVDQVAYNDQVVADLKKLTGSNKKDNTFTQISLRRYAQVPGQSLGLEKNSKNKIAVVYAEGDIVDGKGDDGQIGGDRFARIFNKIRQDENVKAVVLRINSPGGSATASEVMQREIRLTRESKPVVVSMGDYAASGGYWIATDSNRIFAEPNTITGSIGVFGVLFNGQKLANDNGITWDAVKTARYADSQTVARPKSPQEIAIYQRSVDRIYNMFVNKVAQGRKLPTQKVAEIAQGRVWSGVTAKQIGLVDEIGGLNAAIEYAAKAAKLGKDWQLREYPRESSFEERFFGGVVEEISTTLGIKKLDVKPNDPLTVQIQKIQQEISILQTMNDPQGVYARLPINLKIE | failed |
| MEEEEARQVVIDNDLKKKIKETVKKILKRSSLLEITEIKAREEASSELNLDLSRDPYKIIVREAVDSFIEKAIMTIDTEMGKLHTQIVEDVDGEVTENATKTTTKKKKKKKAKKKVEEEESSPA | failed |
| MVSCSNQQTQTKAITVSDTTLLSAEEFSQKIKKEPNALILDVRTPEEFSEAHIANATNVNWKDNFASGITEVNKNQPVLVYCLSGGRSASASDYLRKNGYTQVYELQGGLLKWQASNFEVVADTVTAAQDSGMTLQQFEALLVTDKYVLIDFYATWCGPCKMMEPALEDIAATMSDKVIVVRIDVDKNEELSKHFEVESLPTVQIYKNKKLVWEDIGYKTKKQLVSQLK | failed |
| TGFVGEMYGTGDILRSVSIPSETDKPIIVELAVAAMEELVRMAQTGDPLWLSTDNSVEILNEEEYFRTFPRGIGPKPLGLRSEASRQSAVVIMNHINLVEILMDVNQWSCVFSGIVSRALTLEVLSTGVAGNYNGALQVMTAEFQVPSPLVPTRENYFVRYCKQHSDGSWAVVDVSLDSLRPSTPILRTRRRPSGCLIQELPNGYSKVTWIEHMEVDDRSVHNMYKPLVQSGLAFGAKRWVATLERQCERLASSMASNIPGDLSVITSPEGRKSMLKLAERMVMSFCSGVGASTAHAWTTMSTTGSDDVRVMTRKSMV | failed |
| MQDIFEEIIDYLKGIWLKRRYIIIATWLICPIGWYFVAAMPNVYQSEARVYVDTQSLLRPLLKGLTVETNPDTQIRLMVKTLLSRPNLERISRMTDLDVQASTPAQYEAIIKNLKDNIKISSARRENIYTLSIEDEDPEMAKNIVRSALTVFIENTLGETRSDSDSAQKFLNTQIKDYENRLSNSEARLTSFKQKYSGILPDQSGGYYAKLNGNREKLKAIELDLLENKTRLDSAKKQLAQSVVADTGSDNKIKSENSIQTTYDDRINELEVLLDNLKLRYTEKHPDVIETSRNLEHLNKLRSSEIEKYLAQNNENTGSLKRLSANPVIQEVQIHVNQLENLIASLNVRADNYRQRIIELENRVHTLPEIEAELIALNRGYGITKEKYEELLSRKETAQLAQQADETTDKIQFRVIDPPRKATKPSGPKRFLLFGVVTLIGFAVGIGLSLLMSQLNPVATSTAQLSKITGVPIFGVISANENLGLQQWHKKKTFIFIGSNVLLLCLLVLFVSYFLFPDTIQAPLKRIF | failed |
| MSIITRLFNNSDFEKLNQLCKLYDDLGYPTNENDLKKRLKKITNHDDYFLLLLIKENKIIGLSGMCKMMFYEKNAEYMRILAFVIHSEFRKKGYGKRLLADSEEFSKRLNCKAITLNSGNRNERLSAHKLYSDNGYVSNTSGFTKQL | not failed |
| MSDRDSWISNLGFVLAAVGGAAGLGNIWRFPWLTAGNGGSAFLIVYLLVVVGIGVPGLLAEFVLGRCGRQTPTAALRSLTGSRWGSWLGAFNVLTTLVILSFYSVVGGWILRYTLVSPVGTYFGQPQQYFGAMSFGLEAVAFHLLFLGIVAAIVFFGISNGIERVSKVMLPGVVIILLGLAVWTATQPGTAAGYAFYLSFDAEYLAANFLSVIGPAAGQALFTLSLGAGVMLTYASYLDDNASLPRDTLVIAVSNTFIGVLAGLVVIPLLFSQGVDPGQGGPGALFVALATAFATLPGGELVATAFFVTVLMAAVTSGISLLETPVATLVDSFGVPRRRATVLVSVLLAATGSGLALTSSVFQFVSGTLADLMLTVGLFAFTVIVGWLLRGDALAEFRAGTARFEWLAKPWLLTVSWVLPVVVLFLLTNTLASLAGISVGLGGRVIIAVIGTVALAVVVRNGSRTDRLSSH | failed |
